Test results: paper PMC6351033

Biological target: CXCR3 chemotactic receptor (human (endogenous in PBMC)) (UniProt P49682)
Chain of UniProt P49682 (P49682 whole entry): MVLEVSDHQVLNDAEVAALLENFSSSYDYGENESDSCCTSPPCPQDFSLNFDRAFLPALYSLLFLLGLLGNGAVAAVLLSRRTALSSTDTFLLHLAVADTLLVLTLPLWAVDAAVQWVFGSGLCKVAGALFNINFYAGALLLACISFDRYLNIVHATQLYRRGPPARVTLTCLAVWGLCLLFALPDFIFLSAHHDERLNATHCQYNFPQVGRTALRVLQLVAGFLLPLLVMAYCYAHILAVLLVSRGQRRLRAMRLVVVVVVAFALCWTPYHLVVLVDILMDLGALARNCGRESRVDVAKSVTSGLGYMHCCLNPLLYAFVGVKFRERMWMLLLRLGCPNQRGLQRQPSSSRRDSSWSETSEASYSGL

chemotaxis of PBMC (Boyden chamber, Tag7-Mts1 at 10^-9 M) after preincubation of the cells with antibodies to CXCR3; reduction of migration: < 20%
Substance: Tag7-Mts1 complex (from UniProt O75594 22-196; P26447 1-101)
